According to patent US20180155451A1 (published 2018):

T1: FcγRIIb (human, UniProt P31994 43-217)
T1 construct: extracellular domain; also called FcgRIIb; 2b
T1 sequence (looked up): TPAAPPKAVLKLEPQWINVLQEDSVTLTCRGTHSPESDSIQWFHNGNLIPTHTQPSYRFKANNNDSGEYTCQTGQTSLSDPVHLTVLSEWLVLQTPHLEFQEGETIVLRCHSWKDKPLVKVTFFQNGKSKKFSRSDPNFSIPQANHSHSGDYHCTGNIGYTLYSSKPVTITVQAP

T2: FcγRIIb extracellular domain with C-terminal His tag (human, UniProt P31994 43-217)
T2 construct: extracellular domain; also called 2b; FcgRIIb
T2 sequence (looked up): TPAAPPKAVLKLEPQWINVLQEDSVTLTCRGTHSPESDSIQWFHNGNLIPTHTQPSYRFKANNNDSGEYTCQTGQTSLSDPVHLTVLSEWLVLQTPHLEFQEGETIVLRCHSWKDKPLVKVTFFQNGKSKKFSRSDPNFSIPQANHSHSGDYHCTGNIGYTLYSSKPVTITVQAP


Tests used:
[1] = target: T3, FcγRIa (human, UniProt P12314 16-292); assay: SPR, captured antibody; relative to GpH7-A5/GpH7-B3/GpL16-k0
T3 construct: extracellular domain; also called FcgRI; 1a

[2] = target: T1, FcγRIIb; assay: as above
[3] = target: T4, FcγRIIIa extracellular domain with C-terminal His tag (human, UniProt P08637 17-208); assay: SPR, relative to GpH7-A5/GpH7-B3/GpL16-k0
T4 construct: extracellular domain; also called 3a; FcgRIIIa
Method: (§1) The heterodimerized antibodies He Abs in which one of the H chains was introduced with an alteration were assayed for their binding activities to each activating FcγR and inhibitory FcγR according to the method described in Example 4. […] The activating FcγRs in FIGS. 26, 27, 28, and 29 are FcγRIa, FcγRIIa (R), FcγRIIa (H), and FcγRIIIa, respectively.
(§2) Analysis of interaction between objective antibody and the FcγR was carried out using Biacore T100 (GE Healthcare). HBS-EP+ (GE Healthcare) was used as the running buffer, and the measurement temperature was set to 25° C. Chips produced by immobilizing the antigen peptide by the amine coupling method to a Series S Sencor Chip CM5 (GE Healthcare), or alternatively, chips produced by allowing preliminarily biotinylated antigen peptides to interact with and immobilize onto a Series S Sensor Chip SA (certified) (GE Healthcare) were used. Antibodies of interest were captured onto an antigen peptide-immobilized chip, and allowed to interact to each FcγR diluted with running buffer. To regenerate and repeatedly use the chip, the antibodies captured on the chip were washed off by reacting 10 mM glycine-HCl, pH 1.5.

[4] = target: T2, FcγRIIb extracellular domain with …; assay: SPR, relative to GpH7-A5/GpH7-B3/GpL16-k0
Method: as §1, §2

T3 sequence (P12314 16-292): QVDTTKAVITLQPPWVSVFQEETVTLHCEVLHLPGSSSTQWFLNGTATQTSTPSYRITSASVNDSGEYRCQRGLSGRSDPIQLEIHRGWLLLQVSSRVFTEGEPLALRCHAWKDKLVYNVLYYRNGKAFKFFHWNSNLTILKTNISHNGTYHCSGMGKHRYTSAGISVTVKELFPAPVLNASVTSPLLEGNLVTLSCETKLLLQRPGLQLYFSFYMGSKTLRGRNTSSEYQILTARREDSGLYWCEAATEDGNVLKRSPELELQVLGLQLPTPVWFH
T4 sequence (P08637 17-208): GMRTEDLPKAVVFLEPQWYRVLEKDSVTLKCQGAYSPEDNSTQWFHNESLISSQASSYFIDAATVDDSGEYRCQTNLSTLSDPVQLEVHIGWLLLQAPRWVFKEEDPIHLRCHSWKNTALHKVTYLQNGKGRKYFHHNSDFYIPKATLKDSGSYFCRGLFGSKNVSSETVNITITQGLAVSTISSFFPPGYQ

| He/Con_1a [1] | He/Con_2b [2] | He/Con_3a [3] | He/Con_2b [4] | Binder |
| --- | --- | --- | --- | --- |
| 88.7 relative, HeCon Ab = 100 | 46.8 relative, HeCon Ab = 100 |  |  | GpH7-A5/GpH7-B3 variant (L235_14T)/GpL16-k0 (antibody, human IgG1, kappa, IgG1 heterodimer, mutation in the GpH7-B3 chain only; also called He Ab) heavy 1: not shown heavy 2: not shown light: DIVMTQSPLSLPVTPGEPASISCQASESLVHSNRNTYLHWYLQKPGQSPQLLIYKVSNRFSGVPDRFSGSGSGTDFTLKISRVEAEDVGVYYCSQNTHVPPTFGQGTKVEIERTVAAPSVFIFPPSDEQLKSGTASVVCLLNNFYPREAKVQWKVDNALQSGNSQESVTEQDSKDSTYSLSSTLTLSKADYEKHKVYACEVTHQGLSSPVTKSFNRGEC |
|  |  | 101 control=100 | 52.4 control=100 | GpH7-A5/GpH7-B3 variant A330_03V/GpL16-k0 (antibody, human IgG1, kappa, He Ab: alteration in one H chain only; also called He Ab) heavy 1: not shown heavy 2: not shown light: DIVMTQSPLSLPVTPGEPASISCQASESLVHSNRNTYLHWYLQKPGQSPQLLIYKVSNRFSGVPDRFSGSGSGTDFTLKISRVEAEDVGVYYCSQNTHVPPTFGQGTKVEIERTVAAPSVFIFPPSDEQLKSGTASVVCLLNNFYPREAKVQWKVDNALQSGNSQESVTEQDSKDSTYSLSSTLTLSKADYEKHKVYACEVTHQGLSSPVTKSFNRGEC |
| 100 relative, HeCon Ab = 100 | 89.2 relative, HeCon Ab = 100 |  |  | GpH7-A5/GpH7-B3 variant (V266_19Q)/GpL16-k0 (antibody, human IgG1, kappa, IgG1 heterodimer, mutation in the GpH7-B3 chain only; also called He Ab) heavy 1: not shown heavy 2: not shown light: DIVMTQSPLSLPVTPGEPASISCQASESLVHSNRNTYLHWYLQKPGQSPQLLIYKVSNRFSGVPDRFSGSGSGTDFTLKISRVEAEDVGVYYCSQNTHVPPTFGQGTKVEIERTVAAPSVFIFPPSDEQLKSGTASVVCLLNNFYPREAKVQWKVDNALQSGNSQESVTEQDSKDSTYSLSSTLTLSKADYEKHKVYACEVTHQGLSSPVTKSFNRGEC |

The remaining lines, values behind:

| Binder | He/Con_1a [1] | He/Con_2b [2] | He/Con_3a [3] | He/Con_2b [4] |
| --- | --- | --- | --- | --- |
| GpH7-A5/GpH7-B3 variant (L235_19Q)/GpL16-k0 (antibody, human IgG1, kappa, IgG1 heterodimer, mutation in the GpH7-B3 chain only; also called He Ab) heavy 1: not shown heavy 2: not shown light: DIVMTQSPLSLPVTPGEPASISCQASESLVHSNRNTYLHWYLQKPGQSPQLLIYKVSNRFSGVPDRFSGSGSGTDFTLKISRVEAEDVGVYYCSQNTHVPPTFGQGTKVEIERTVAAPSVFIFPPSDEQLKSGTASVVCLLNNFYPREAKVQWKVDNALQSGNSQESVTEQDSKDSTYSLSSTLTLSKADYEKHKVYACEVTHQGLSSPVTKSFNRGEC | 94 relative, HeCon Ab = 100 | 42.6 relative, HeCon Ab = 100 |  |  |
| GpH7-A5/GpH7-B3 variant (L235_11K)/GpL16-k0 (antibody, human IgG1, kappa, IgG1 heterodimer, mutation in the GpH7-B3 chain only; also called He Ab) heavy 1: not shown heavy 2: not shown light: DIVMTQSPLSLPVTPGEPASISCQASESLVHSNRNTYLHWYLQKPGQSPQLLIYKVSNRFSGVPDRFSGSGSGTDFTLKISRVEAEDVGVYYCSQNTHVPPTFGQGTKVEIERTVAAPSVFIFPPSDEQLKSGTASVVCLLNNFYPREAKVQWKVDNALQSGNSQESVTEQDSKDSTYSLSSTLTLSKADYEKHKVYACEVTHQGLSSPVTKSFNRGEC | 79.9 relative, HeCon Ab = 100 | 6.3 relative, HeCon Ab = 100 |  |  |
| GpH7-A5/GpH7-B3 variant A330_07I/GpL16-k0 (antibody, human IgG1, kappa, He Ab: alteration in one H chain only; also called He Ab) heavy 1: not shown heavy 2: not shown light: DIVMTQSPLSLPVTPGEPASISCQASESLVHSNRNTYLHWYLQKPGQSPQLLIYKVSNRFSGVPDRFSGSGSGTDFTLKISRVEAEDVGVYYCSQNTHVPPTFGQGTKVEIERTVAAPSVFIFPPSDEQLKSGTASVVCLLNNFYPREAKVQWKVDNALQSGNSQESVTEQDSKDSTYSLSSTLTLSKADYEKHKVYACEVTHQGLSSPVTKSFNRGEC |  |  | 103 control=100 | 67.1 control=100 |
| GpH7-A5/GpH7-B3 variant A330_04F/GpL16-k0 (antibody, human IgG1, kappa, He Ab: alteration in one H chain only; also called He Ab) heavy 1: not shown heavy 2: not shown light: DIVMTQSPLSLPVTPGEPASISCQASESLVHSNRNTYLHWYLQKPGQSPQLLIYKVSNRFSGVPDRFSGSGSGTDFTLKISRVEAEDVGVYYCSQNTHVPPTFGQGTKVEIERTVAAPSVFIFPPSDEQLKSGTASVVCLLNNFYPREAKVQWKVDNALQSGNSQESVTEQDSKDSTYSLSSTLTLSKADYEKHKVYACEVTHQGLSSPVTKSFNRGEC |  |  | 147 control=100 | 92.8 control=100 |
| GpH7-A5/GpH7-B3 variant A330_06M/GpL16-k0 (antibody, human IgG1, kappa, He Ab: alteration in one H chain only; also called He Ab) heavy 1: not shown heavy 2: not shown light: DIVMTQSPLSLPVTPGEPASISCQASESLVHSNRNTYLHWYLQKPGQSPQLLIYKVSNRFSGVPDRFSGSGSGTDFTLKISRVEAEDVGVYYCSQNTHVPPTFGQGTKVEIERTVAAPSVFIFPPSDEQLKSGTASVVCLLNNFYPREAKVQWKVDNALQSGNSQESVTEQDSKDSTYSLSSTLTLSKADYEKHKVYACEVTHQGLSSPVTKSFNRGEC |  |  | 142 control=100 | 80.5 control=100 |
| GpH7-A5/GpH7-B3 variant (L235_13S)/GpL16-k0 (antibody, human IgG1, kappa, IgG1 heterodimer, mutation in the GpH7-B3 chain only; also called He Ab) heavy 1: not shown heavy 2: not shown light: DIVMTQSPLSLPVTPGEPASISCQASESLVHSNRNTYLHWYLQKPGQSPQLLIYKVSNRFSGVPDRFSGSGSGTDFTLKISRVEAEDVGVYYCSQNTHVPPTFGQGTKVEIERTVAAPSVFIFPPSDEQLKSGTASVVCLLNNFYPREAKVQWKVDNALQSGNSQESVTEQDSKDSTYSLSSTLTLSKADYEKHKVYACEVTHQGLSSPVTKSFNRGEC | 90.5 relative, HeCon Ab = 100 | 48.2 relative, HeCon Ab = 100 |  |  |
